Source: patent US20140087995A1 (published 2014)
Numbered stars: 1 amine (or outer) side, 2 acyl side, 3 side chain; on linkers, the order of the positions; unused ones are H or OH. Bridge positions count the residues as written; N and C are the ends. Side chains are listed from the residue outwards. Ends that are not written are not given here. * marks the point of attachment. C20 diacid = O=C(O)CCCCCCCCCCCCCCCCCCC(=O)*; γGlu = O=C(O)[C@H](CCC(=O)[*:2])N[*:1]; AEEA = NCCOCCOCC(=O)O

T1: human calcitonin receptor (human, UniProt P30988 25-474)
T1 sequence (looked up): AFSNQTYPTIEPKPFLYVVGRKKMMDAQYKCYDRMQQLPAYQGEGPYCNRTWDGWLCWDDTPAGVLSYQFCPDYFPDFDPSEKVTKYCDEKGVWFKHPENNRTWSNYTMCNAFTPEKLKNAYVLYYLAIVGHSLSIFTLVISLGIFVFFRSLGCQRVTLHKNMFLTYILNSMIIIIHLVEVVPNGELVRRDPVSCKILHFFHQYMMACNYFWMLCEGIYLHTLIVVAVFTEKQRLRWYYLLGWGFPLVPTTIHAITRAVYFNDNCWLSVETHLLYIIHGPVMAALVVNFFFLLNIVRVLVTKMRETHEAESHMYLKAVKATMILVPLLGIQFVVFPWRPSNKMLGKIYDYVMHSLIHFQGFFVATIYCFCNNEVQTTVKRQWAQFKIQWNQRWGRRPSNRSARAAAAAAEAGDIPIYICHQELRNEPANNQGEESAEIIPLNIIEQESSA

T2: human amylin 3(a) receptor (human calcitonin receptor co-expressed with RAMP-3) (human, UniProt P30988 25-474; O60896 24-148, limits assumed)
T2 sequence (looked up) 1: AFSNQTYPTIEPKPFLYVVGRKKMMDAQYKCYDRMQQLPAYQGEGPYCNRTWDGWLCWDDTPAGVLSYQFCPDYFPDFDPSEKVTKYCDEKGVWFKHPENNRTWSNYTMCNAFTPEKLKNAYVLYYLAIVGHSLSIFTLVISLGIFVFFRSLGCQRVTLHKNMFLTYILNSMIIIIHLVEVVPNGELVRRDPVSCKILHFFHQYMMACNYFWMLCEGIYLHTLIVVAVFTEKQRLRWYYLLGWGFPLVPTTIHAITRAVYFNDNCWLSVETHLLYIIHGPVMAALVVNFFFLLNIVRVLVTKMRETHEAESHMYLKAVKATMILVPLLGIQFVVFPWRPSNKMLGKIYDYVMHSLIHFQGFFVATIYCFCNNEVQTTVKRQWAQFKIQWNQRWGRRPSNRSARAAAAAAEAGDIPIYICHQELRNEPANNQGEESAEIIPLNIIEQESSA
T2 sequence (looked up) 2: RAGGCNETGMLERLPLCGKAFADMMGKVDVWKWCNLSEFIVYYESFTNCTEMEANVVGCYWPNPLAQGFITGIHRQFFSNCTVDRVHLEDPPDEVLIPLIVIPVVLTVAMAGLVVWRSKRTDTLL


Columns and labels:
[1] = biological target: T1, human calcitonin receptor; test: cell-based or functional assay
[2] = biological target: T2, human amylin 3(a) receptor (human …); test: cell-based or functional assay

Binder | Ratio hCT/hAmylin funct. [1] | hCTR funct. EC50 [1] [nM] | hAmylin-R funct. EC50 [2] [nM]
K([γGlu-γGlu-C20 diacid])CNTATCATQRLAEFLRHSSPNFGAIPSSTNVGHNTY-NH2 (disulfide 2-7; N-terminus assumed; SMILES CC[C@H](C)[C@H](NC(=O)[C@H](C)NC(=O)CNC(=O)[C@H](Cc1ccccc1)NC(=O)[C@H](CC(N)=O)NC(=O)[C@@H]1CCCN1C(=O)[C@H](CO)NC(=O)[C@H](CO)NC(=O)[C@H](Cc1c[nH]cn1)NC(=O)[C@H](CCCNC(=N)N)NC(=O)[C@H](CC(C)C)NC(=O)[C@H](Cc1ccccc1)NC(=O)[C@H](CCC(=O)O)NC(=O)[C@H](C)NC(=O)[C@H](CC(C)C)NC(=O)[C@H](CCCNC(=N)N)NC(=O)[C@H](CCC(N)=O)NC(=O)[C@@H](NC(=O)[C@H](C)NC(=O)[C@@H]1CSSC[C@H](NC(=O)[C@@H](N)CCCCNC(=O)CC[C@H](NC(=O)CC[C@H](NC(=O)CCCCCCCCCCCCCCCCCCC(=O)O)C(=O)O)C(=O)O)C(=O)N[C@@H](CC(N)=O)C(=O)N[C@@H]([C@@H](C)O)C(=O)N[C@@H](C)C(=O)N[C@@H]([C@@H](C)O)C(=O)N1)[C@@H](C)O)C(=O)N1CCC[C@H]1C(=O)N[C@@H](CO)C(=O)N[C@@H](CO)C(=O)N[C@H](C(=O)N[C@@H](CC(N)=O)C(=O)N[C@H](C(=O)NCC(=O)N[C@@H](Cc1c[nH]cn1)C(=O)N[C@@H](CC(N)=O)C(=O)N[C@H](C(=O)N[C@@H](Cc1ccc(O)cc1)C(N)=O)[C@@H](C)O)C(C)C)[C@@H](C)O, also called compound 87) | 3.8 | 1.09 | 0.285
K([AEEA-AEEA-γGlu-C20 diacid])CNTATCATQRLANFLRHSSPNFGAIPSSTNVGRNTY-NH2 (disulfide 2-7; N-terminus assumed; SMILES CC[C@H](C)[C@H](NC(=O)[C@H](C)NC(=O)CNC(=O)[C@H](Cc1ccccc1)NC(=O)[C@H](CC(N)=O)NC(=O)[C@@H]1CCCN1C(=O)[C@H](CO)NC(=O)[C@H](CO)NC(=O)[C@H](Cc1c[nH]cn1)NC(=O)[C@H](CCCNC(=N)N)NC(=O)[C@H](CC(C)C)NC(=O)[C@H](Cc1ccccc1)NC(=O)[C@H](CC(N)=O)NC(=O)[C@H](C)NC(=O)[C@H](CC(C)C)NC(=O)[C@H](CCCNC(=N)N)NC(=O)[C@H](CCC(N)=O)NC(=O)[C@@H](NC(=O)[C@H](C)NC(=O)[C@@H]1CSSC[C@H](NC(=O)[C@@H](N)CCCCNC(=O)COCCOCCNC(=O)COCCOCCNC(=O)CC[C@H](NC(=O)CCCCCCCCCCCCCCCCCCC(=O)O)C(=O)O)C(=O)N[C@@H](CC(N)=O)C(=O)N[C@@H]([C@@H](C)O)C(=O)N[C@@H](C)C(=O)N[C@@H]([C@@H](C)O)C(=O)N1)[C@@H](C)O)C(=O)N1CCC[C@H]1C(=O)N[C@@H](CO)C(=O)N[C@@H](CO)C(=O)N[C@H](C(=O)N[C@@H](CC(N)=O)C(=O)N[C@H](C(=O)NCC(=O)N[C@@H](CCCNC(=N)N)C(=O)N[C@@H](CC(N)=O)C(=O)N[C@H](C(=O)N[C@@H](Cc1ccc(O)cc1)C(N)=O)[C@@H](C)O)C(C)C)[C@@H](C)O, also called compound 95) | 33 | 21.5 | 0.651
K([AEEA-C20 diacid])CNTATCATQRLANFLRHSSPNFGAIPSSTNVGHNTY-NH2 (disulfide 2-7; N-terminus assumed; SMILES CC[C@H](C)[C@H](NC(=O)[C@H](C)NC(=O)CNC(=O)[C@H](Cc1ccccc1)NC(=O)[C@H](CC(N)=O)NC(=O)[C@@H]1CCCN1C(=O)[C@H](CO)NC(=O)[C@H](CO)NC(=O)[C@H](Cc1c[nH]cn1)NC(=O)[C@H](CCCNC(=N)N)NC(=O)[C@H](CC(C)C)NC(=O)[C@H](Cc1ccccc1)NC(=O)[C@H](CC(N)=O)NC(=O)[C@H](C)NC(=O)[C@H](CC(C)C)NC(=O)[C@H](CCCNC(=N)N)NC(=O)[C@H](CCC(N)=O)NC(=O)[C@@H](NC(=O)[C@H](C)NC(=O)[C@@H]1CSSC[C@H](NC(=O)[C@@H](N)CCCCNC(=O)COCCOCCNC(=O)CCCCCCCCCCCCCCCCCCC(=O)O)C(=O)N[C@@H](CC(N)=O)C(=O)N[C@@H]([C@@H](C)O)C(=O)N[C@@H](C)C(=O)N[C@@H]([C@@H](C)O)C(=O)N1)[C@@H](C)O)C(=O)N1CCC[C@H]1C(=O)N[C@@H](CO)C(=O)N[C@@H](CO)C(=O)N[C@H](C(=O)N[C@@H](CC(N)=O)C(=O)N[C@H](C(=O)NCC(=O)N[C@@H](Cc1c[nH]cn1)C(=O)N[C@@H](CC(N)=O)C(=O)N[C@H](C(=O)N[C@@H](Cc1ccc(O)cc1)C(N)=O)[C@@H](C)O)C(C)C)[C@@H](C)O, also called compound 91) [N^ε1-[2-[2-[2-(19-carboxynonadecanoylamino)ethoxy]ethoxy]acetyl]-[Arg17,Pro21,Pro27,His34]-h-amylin] | 36.9 | 1.48 | 0.04
